Assays:
Assay in all cases: cell_activity
[1] = tested on: T1, SC_CAPNS1 single-chain meganuclease (engineered); conditions: 293H endogenous locus; 18.25 with TREX2, 25.4 with scTREX2
T1 sequence: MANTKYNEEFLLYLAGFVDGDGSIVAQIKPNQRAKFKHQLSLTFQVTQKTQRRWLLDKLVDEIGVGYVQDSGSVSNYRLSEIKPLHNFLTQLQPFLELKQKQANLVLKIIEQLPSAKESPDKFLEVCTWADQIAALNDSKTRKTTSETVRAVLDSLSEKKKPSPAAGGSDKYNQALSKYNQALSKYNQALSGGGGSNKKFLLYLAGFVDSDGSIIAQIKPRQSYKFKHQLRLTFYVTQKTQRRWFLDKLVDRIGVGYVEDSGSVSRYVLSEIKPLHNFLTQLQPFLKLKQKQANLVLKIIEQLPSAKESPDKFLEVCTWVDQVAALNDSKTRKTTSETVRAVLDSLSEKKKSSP

[2] = tested on: T2, scTrex2-SC_CAPNS1 (engineered (human TREX2 fusion)); conditions: 293H endogenous locus
T2 sequence: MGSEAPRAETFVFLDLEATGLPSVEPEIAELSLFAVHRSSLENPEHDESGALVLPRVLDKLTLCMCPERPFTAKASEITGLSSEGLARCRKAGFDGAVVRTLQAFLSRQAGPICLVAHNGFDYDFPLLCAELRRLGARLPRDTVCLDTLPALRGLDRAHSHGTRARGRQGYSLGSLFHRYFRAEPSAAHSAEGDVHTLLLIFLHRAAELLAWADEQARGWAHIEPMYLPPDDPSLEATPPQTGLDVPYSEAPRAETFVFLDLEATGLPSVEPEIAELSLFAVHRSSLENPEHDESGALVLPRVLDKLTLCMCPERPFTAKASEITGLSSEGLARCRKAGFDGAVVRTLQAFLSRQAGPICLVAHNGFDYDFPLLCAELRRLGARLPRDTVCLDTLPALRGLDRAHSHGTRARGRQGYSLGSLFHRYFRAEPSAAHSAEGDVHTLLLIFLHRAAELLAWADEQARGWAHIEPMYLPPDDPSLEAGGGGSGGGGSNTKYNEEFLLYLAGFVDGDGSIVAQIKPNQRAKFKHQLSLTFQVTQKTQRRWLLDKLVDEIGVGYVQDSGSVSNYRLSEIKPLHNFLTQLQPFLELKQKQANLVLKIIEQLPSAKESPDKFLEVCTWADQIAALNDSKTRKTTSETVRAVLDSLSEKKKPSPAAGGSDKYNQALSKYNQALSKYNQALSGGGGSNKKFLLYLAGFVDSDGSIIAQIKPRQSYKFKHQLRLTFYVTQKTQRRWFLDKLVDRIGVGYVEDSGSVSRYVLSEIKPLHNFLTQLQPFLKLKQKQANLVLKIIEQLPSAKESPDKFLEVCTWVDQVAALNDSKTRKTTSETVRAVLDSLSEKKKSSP

[3] = tested on: T3, scTrex2-SC_RAG (engineered (human TREX2 fusion)); conditions: 293H endogenous locus
T3 sequence: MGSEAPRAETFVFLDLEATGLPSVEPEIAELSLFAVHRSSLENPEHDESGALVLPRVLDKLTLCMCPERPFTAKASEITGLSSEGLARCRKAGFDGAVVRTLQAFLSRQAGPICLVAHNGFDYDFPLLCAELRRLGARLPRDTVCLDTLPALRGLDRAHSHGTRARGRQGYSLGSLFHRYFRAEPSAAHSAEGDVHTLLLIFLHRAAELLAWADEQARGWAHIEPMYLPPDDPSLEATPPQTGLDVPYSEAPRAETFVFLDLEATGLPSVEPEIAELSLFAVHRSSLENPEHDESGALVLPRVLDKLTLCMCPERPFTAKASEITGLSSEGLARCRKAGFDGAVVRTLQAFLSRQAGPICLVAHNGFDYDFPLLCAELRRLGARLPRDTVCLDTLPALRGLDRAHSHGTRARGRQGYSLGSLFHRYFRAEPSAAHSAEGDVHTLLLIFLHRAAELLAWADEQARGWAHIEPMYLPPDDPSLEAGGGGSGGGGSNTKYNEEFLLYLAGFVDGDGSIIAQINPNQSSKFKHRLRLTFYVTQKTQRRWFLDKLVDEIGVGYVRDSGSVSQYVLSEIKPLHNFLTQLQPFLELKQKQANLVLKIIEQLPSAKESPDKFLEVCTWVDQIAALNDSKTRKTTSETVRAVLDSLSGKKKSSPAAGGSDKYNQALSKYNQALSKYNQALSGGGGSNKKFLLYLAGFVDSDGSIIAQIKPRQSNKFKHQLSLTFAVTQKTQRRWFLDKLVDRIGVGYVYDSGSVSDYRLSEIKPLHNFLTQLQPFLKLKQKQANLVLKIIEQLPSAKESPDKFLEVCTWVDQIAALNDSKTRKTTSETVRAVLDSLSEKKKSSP

[4] = tested on: T4, SC_RAG single-chain meganuclease (engineered); conditions: 293H endogenous locus; 4.69 with TREX2, 5.41 with scTREX2
T4 sequence: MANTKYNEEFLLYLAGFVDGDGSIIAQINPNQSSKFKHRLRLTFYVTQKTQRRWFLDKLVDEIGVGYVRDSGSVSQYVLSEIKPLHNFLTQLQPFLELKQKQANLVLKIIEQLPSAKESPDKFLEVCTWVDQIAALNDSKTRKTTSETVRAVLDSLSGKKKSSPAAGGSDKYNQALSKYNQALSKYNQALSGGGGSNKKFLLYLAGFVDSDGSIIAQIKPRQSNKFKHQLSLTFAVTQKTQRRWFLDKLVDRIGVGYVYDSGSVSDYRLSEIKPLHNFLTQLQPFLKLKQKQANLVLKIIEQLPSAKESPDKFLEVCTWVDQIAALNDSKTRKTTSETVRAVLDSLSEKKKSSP

Row | Substance | activity (% targeted mutagenesis) [1] | activity (% targeted mutagenesis) [2] | activity (% targeted mutagenesis) [3] | activity (% targeted mutagenesis) [4]
1 | CAPNS1 locus meganuclease target | 15.2 | 35.8 |  | 
2 | RAG1 locus target |  |  | 8.42 | 1.4

From patent US20140234975
